Results on 4 molecules are retold here after US20160200799A1.

A value given as a limit tells only on which side of the number the result lay.

Experiment in all cases: cell-based or functional assay
The target of assay [1] is Influenza virus A/Brisbane/59/2007 (H1N1) (Influenza A virus A/Brisbane/59/2007 (H1N1)).
Assay [2] addresses Influenza virus A/California/7/2009pdm (H1N1pdm) (Influenza A virus A/California/7/2009pdm (H1N1pdm)).
In assay [3] the target is Influenza virus A/Indonesia/5/2005/PR8-IBCDC-RG2 (H5N1) (Influenza A virus A/Indonesia/5/2005/PR8-IBCDC-RG2 (H5N1)).
In assay [4] the target is Influenza virus A/Panama/2007/1999 (H3N2) (Influenza A virus A/Panama/2007/1999 (H3N2)).
Assay [5] addresses Influenza virus A/Suita/1/2009pdm (H1N1 2009 pandemic) (Influenza A virus A/Suita/1/2009pdm (H1N1pdm)).

B1: Group 47 representative clone F083-308, Fab-PP-type antibody (Fab, V domains shown)
VH: QVQLVQSGAEVKKPGSSVKVSCKASGGIFRSHAISWVRQAPGQGLEWMGGIIAIFGTTHYAQQFQGRVTITADESTSTVYMELSTLRSEDTAVYYCARGPNYFESYFDNWGQGTLVTVSS
VL: EIVLTQSPATLSLSPGERATLSCRASQTISSYLAWYQQKPGQAPRLLIYGASNRATGIPARFSGSGSGTDFTLTINSLEPEDFAVYYCQQRSSWPPITFGQGTRLEIK
Regarding B1, the HI activity in assay [1] and in assay [2] was over 160 µg/mL throughout. In addition, the Neutralizing activity (%) at 100 µg/ml came to 100% in assay [1], 29.4% in assay [3], 1.4% in assay [4] and 97.7% in assay [5]. Further, the Neutralizing activity (%) at 250 µg/ml in assay [1] was 100%; in assay [3] it was 49.4%; in assay [4], -6.8%; in assay [5], 100%.

B2: Group 1 representative clone F080-227, Fab-PP-type antibody (Fab, V domains shown)
VH: QVQLQESGAEVKKPGSSVKVSCKASGGIFRRNAISWVRQAPGQGLEWMGGIIAIFGTANYAQKFQGRVTITADESTSTVYMELSSLRPEDTAVYYCARGPNYYENFFDYWGQGTLVTVSS
VL: DIVMTQSPSSLSASVGDRLDLTCRASQDIANSLAWYKQRPGKAPELLVFGASRLEGGVPSRFSGTRAGTDFTLTISSLQPEDLGTYFCQQYFSFPRTFGQGTTLDLR
On to B2, for which the HI activity in assay [1] and in assay [2] was over 160 µg/mL each time. Also, the Neutralizing activity (%) at 100 µg/ml in assay [1] is 96%; in assay [3], 67.6%; in assay [4] it was -0.7%; in assay [5] it was 100%. In addition, the Neutralizing activity (%) at 250 µg/ml in assay [1] was 98%; in assay [3] it was 52.9%; in assay [4] it was -0.7%; in assay [5] it was 100%.

B3: Group 3 representative clone F081-281, Fab-PP-type antibody (Fab, V domains shown)
VH: QVQLVQSGSEVKKPGSSVKVSCSFKASGGIISKYAITWVRQAPGQGLEWMGGIIAIFGSTNYAQKFQGRLTITSDESTSTAYMELSSLTSEDTAVYYCGRGPHYYESHLDYWGQGTLVTVSS
VL: EIVLTQSPGTLSLSPGERATLSCRASQGMSSSFLAWYQQKPGQPPRLLISGASTRATGIPDRFSGSGSGTDFTLTINRLEPEDFAVYYCQQYGSSPRTFGQGTKVEIK
For the molecule B3, the HI activity in assay [1] and in assay [2] was over 160 µg/mL each time. Further, the Neutralizing activity (%) at 100 µg/ml was 98% in assay [1], 81.8% in assay [3], -11.6% in assay [4] and 100% in assay [5]. Moreover, the Neutralizing activity (%) at 250 µg/ml in assay [1] was 100%; in assay [3], 85.9%; in assay [4], -8.9%; in assay [5], 100%.

B4: Group 48 representative clone F083-389, Fab-PP-type antibody (Fab, V domains shown)
VH: QVQLVQSGAEVKKPGSSVKVSCKASGDIFNKFAITWVRQAPGQGLEWMGGITALFATTSYAQKFQDRVTINWDESTTTAFMELSSLRFEDTAVYYCARGPNYYETYLDNWGQGTLVTVSS
VL: EIVLTQSPTILSASVGDRVTITCRASQSISKWLAWYQQKPGKVPKLLIYMASTLESGVPSRFSGSGSGSEFTLTISSLQPGDFATYYCQQYNSYPRTFGQGTKVEINV
For B4, the HI activity in assay [1] and in assay [2] was over 160 µg/mL in each case. The Neutralizing activity (%) at 100 µg/ml in assay [1] was 98%; in assay [3], 54.6%; in assay [4], -0.7%; in assay [5] it was -18.3%. The Neutralizing activity (%) at 250 µg/ml was 100% in assay [1], 60.8% in assay [3], 19.9% in assay [4] and 100% in assay [5].
